Measured values taken from article PMC9482650, “Quantitative fragmentomics allow affinity mapping of interactomes” (Nature Communications, 2022).

Legend:
Test in all cases: holdup assay
Set-up in all cases: key: below the threshold = too weak to quantify, mostly under pKd 3.1 to 4
FRMPD2_3, Q68DX3 = target: FRMPD2_3, Q68DX3
MAGI2_4, Q86UL8 = target: MAGI2_4, Q86UL8
MAGI1_1, Q96QZ7 = target: MAGI1_1, Q96QZ7
PTPN3, P26045 = target: PTPN3, P26045
DLG2_2, Q15700 = target: DLG2_2, Q15700
Inadl_10, Q8NI35 = target: Inadl_10, Q8NI35
Sequence of Inadl_10, Q8NI35 (Q8NI35 1673-1763): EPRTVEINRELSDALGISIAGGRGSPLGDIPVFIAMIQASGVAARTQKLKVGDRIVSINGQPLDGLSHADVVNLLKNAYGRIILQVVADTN

PDZRN4_1, Q6ZMN7 = target: PDZRN4_1, Q6ZMN7
Sequence of PDZRN4_1, Q6ZMN7 (Q6ZMN7 213-318): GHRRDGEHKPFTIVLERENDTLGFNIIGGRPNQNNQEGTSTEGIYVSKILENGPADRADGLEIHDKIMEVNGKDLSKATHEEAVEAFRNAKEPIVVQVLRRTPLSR

MAGI3_2, Q5TCQ9 = target: MAGI3_2, Q5TCQ9
Sequence of MAGI3_2, Q5TCQ9 (Q5TCQ9 398-503): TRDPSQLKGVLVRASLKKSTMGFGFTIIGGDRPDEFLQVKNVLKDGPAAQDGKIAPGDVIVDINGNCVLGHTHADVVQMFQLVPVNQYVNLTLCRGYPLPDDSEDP

LNX1_2, Q8TBB1 = target: LNX1_2, Q8TBB1
Sequence of LNX1_2, Q8TBB1 (Q8TBB1 371-470): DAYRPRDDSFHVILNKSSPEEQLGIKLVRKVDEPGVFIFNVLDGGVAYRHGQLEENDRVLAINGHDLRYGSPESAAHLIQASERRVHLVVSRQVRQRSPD

LDB3, O75112 = target: LDB3, O75112
Sequence of LDB3, O75112 (O75112 1-94): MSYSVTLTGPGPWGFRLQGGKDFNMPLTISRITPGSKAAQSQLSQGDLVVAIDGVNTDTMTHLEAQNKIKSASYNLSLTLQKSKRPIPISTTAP

APBA3_1, O96018 = target: T1, APBA3_1, O96018
T1 sequence (O96018 389-490, limits assumed, looked up): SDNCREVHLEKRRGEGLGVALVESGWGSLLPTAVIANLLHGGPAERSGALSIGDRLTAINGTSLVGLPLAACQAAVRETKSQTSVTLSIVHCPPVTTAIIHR

GORASP1, Q9BQQ3 = target: GORASP1, Q9BQQ3
Sequence of GORASP1, Q9BQQ3 (Q9BQQ3 1-208): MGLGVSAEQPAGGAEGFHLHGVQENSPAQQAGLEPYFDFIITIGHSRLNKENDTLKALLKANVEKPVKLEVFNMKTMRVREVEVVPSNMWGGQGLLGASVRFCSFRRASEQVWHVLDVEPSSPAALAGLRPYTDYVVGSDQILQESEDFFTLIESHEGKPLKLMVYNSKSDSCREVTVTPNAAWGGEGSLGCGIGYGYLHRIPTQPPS

LNX1_1, Q8TBB1 = target: LNX1_1, Q8TBB1
Sequence of LNX1_1, Q8TBB1 (Q8TBB1 261-371): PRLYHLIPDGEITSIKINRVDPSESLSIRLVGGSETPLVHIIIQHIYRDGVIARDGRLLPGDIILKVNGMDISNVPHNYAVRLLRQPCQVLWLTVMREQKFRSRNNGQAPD

MPP7, Q5T2T1 = target: T2, MPP7, Q5T2T1
T2 sequence (Q5T2T1 134-230, limits assumed, looked up): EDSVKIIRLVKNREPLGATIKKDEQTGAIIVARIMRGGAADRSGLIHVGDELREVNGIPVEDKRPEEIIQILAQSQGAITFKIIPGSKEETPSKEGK

Inadl_9, Q8NI35 = target: Inadl_9, Q8NI35
Sequence of Inadl_9, Q8NI35 (Q8NI35 1530-1615): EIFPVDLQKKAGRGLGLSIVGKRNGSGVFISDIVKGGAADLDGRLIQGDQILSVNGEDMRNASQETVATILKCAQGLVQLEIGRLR

ARHGEF12, Q9NZN5-2 = target: ARHGEF12, Q9NZN5-2
Sequence of ARHGEF12, Q9NZN5-2 (Q9NZN5 other isoform, or with tags, fused parts or gaps): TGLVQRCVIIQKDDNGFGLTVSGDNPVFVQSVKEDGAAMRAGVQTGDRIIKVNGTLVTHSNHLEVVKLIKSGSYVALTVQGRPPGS

MAGI2_3, Q86UL8 = target: MAGI2_3, Q86UL8
Sequence of MAGI2_3, Q86UL8 (Q86UL8 600-682): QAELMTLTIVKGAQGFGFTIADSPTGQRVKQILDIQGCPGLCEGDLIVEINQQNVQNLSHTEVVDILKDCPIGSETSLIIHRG

ARHGAP21, Q5T5U3 = target: T3, ARHGAP21, Q5T5U3
T3 sequence (Q5T5U3 45-169, limits assumed, looked up): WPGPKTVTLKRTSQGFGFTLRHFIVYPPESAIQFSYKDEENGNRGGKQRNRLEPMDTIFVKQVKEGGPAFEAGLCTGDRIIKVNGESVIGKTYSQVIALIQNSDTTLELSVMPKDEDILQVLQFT

DVL3, Q92997 = target: T4, DVL3, Q92997
T4 sequence (Q92997 244-331, limits assumed, looked up): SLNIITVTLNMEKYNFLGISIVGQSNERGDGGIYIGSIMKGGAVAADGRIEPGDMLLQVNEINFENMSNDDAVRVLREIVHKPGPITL

CARD11, Q9BXL7 = target: T5, CARD11, Q9BXL7
T5 sequence (Q9BXL7 662-765, limits assumed, looked up): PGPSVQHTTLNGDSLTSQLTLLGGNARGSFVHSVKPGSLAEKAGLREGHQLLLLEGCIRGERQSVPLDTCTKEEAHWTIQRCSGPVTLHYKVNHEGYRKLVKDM

MAGI2_2, Q86UL8 = target: MAGI2_2, Q86UL8
Sequence of MAGI2_2, Q86UL8 (Q86UL8 410-522): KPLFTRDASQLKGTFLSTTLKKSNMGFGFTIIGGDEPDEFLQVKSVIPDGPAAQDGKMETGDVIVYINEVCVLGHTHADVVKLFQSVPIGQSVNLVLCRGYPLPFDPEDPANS

NHERF3_4, Q5T2W1 = target: T6, NHERF3_4, Q5T2W1
T6 sequence (Q5T2W1 373-468, limits assumed, looked up): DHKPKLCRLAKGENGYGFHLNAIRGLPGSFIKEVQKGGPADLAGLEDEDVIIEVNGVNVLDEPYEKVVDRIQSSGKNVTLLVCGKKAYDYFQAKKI

FRMPD4, Q14CM0 = target: FRMPD4, Q14CM0
Sequence of FRMPD4, Q14CM0 (Q14CM0 67-160): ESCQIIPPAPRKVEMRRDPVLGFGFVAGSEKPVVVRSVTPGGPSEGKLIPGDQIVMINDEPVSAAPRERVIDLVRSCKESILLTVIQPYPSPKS

RADIL, Q96JH8 = target: T7, RADIL, Q96JH8
T7 sequence (Q96JH8 971-1071, limits assumed, looked up): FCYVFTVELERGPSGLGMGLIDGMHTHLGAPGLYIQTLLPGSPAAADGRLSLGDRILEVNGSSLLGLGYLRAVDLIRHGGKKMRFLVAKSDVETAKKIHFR

Inadl_6, Q8NI35 = target: Inadl_6, Q8NI35
Sequence of Inadl_6, Q8NI35 (Q8NI35 1058-1167): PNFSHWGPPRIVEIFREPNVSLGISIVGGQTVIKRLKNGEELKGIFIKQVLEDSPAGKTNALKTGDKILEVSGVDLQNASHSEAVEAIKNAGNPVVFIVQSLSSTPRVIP

MPDZ_10, O75970 = target: T8, MPDZ_10, O75970
T8 sequence (O75970 1624-1722, limits assumed, looked up): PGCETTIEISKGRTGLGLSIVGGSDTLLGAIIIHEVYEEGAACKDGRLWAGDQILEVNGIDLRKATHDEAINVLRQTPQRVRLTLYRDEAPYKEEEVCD

DLG4_1, P78352 = target: DLG4_1, P78352
Sequence of DLG4_1, P78352 (P78352 62-152): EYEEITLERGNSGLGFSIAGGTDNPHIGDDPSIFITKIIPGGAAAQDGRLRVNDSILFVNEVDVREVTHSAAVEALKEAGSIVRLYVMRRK

SCRIB_3, Q14160 = target: SCRIB_3, Q14160
Sequence of SCRIB_3, Q14160 (Q14160 999-1103): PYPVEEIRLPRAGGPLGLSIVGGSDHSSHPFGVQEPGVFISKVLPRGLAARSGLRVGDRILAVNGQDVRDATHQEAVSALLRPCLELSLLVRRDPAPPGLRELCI

GRIP2_5, Q9C0E4 = target: GRIP2_5, Q9C0E4
Sequence of GRIP2_5, Q9C0E4 (Q9C0E4 544-642): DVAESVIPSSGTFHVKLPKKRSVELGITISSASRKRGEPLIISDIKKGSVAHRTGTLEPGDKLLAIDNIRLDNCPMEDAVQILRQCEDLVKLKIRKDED

NOS1, P29475 = target: NOS1, P29475
Sequence of NOS1, P29475 (P29475 9-101): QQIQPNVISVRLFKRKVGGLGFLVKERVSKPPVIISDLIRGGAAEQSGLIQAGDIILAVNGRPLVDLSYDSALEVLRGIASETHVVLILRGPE

[1] = modified: phospho on T at position -1 from the C-terminal residue
[2] = plain residues with an end cap or a label only (N-terminal biotin on a linker: ado-ado)

Sequence of MAGI2_4, Q86UL8 (Q86UL8 772-865): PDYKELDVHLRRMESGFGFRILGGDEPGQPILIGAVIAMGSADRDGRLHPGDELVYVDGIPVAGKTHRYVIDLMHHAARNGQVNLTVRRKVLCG
Sequence of MAGI1_1, Q96QZ7 (Q96QZ7 1-106): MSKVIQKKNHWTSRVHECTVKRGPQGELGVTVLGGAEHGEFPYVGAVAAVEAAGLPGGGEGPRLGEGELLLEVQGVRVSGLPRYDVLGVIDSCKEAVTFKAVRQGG
Sequence of DLG2_2, Q15700 (Q15700 189-283): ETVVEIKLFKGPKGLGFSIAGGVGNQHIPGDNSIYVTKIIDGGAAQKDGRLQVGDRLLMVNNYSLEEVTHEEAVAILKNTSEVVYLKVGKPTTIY
Sequence of PTPN3, P26045 (P26045 505-587): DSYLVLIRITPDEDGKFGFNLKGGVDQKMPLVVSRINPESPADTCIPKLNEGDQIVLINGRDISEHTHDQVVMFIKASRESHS
Sequence of FRMPD2_3, Q68DX3 (Q68DX3 1073-1166): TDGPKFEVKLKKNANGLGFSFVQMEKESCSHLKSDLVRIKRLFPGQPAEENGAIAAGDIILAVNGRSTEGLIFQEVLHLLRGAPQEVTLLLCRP

## RRVRKLPSTTL [RPS6KA1_-1P, Q15418]
FRMPD2_3, Q68DX3; [1]
  pKd: below the threshold
MAGI2_4, Q86UL8; [1]
  pKd: 4.32
MAGI1_1, Q96QZ7; [1]
  pKd: 3.33
PTPN3, P26045; [1]
  pKd: 4.48
DLG2_2, Q15700; [1]
  pKd: 3.83
Inadl_10, Q8NI35; [1]
  pKd: 3.54
PDZRN4_1, Q6ZMN7; [1]
  pKd: 4.31
MAGI3_2, Q5TCQ9; [1]
  pKd: 3.94
LNX1_2, Q8TBB1; [1]
  pKd: below the threshold
LDB3, O75112; [1]
  pKd: 3.62
APBA3_1, O96018; [1]
  pKd: below the threshold
GORASP1, Q9BQQ3; [1]
  pKd: 3.6
LNX1_1, Q8TBB1; [1]
  pKd: 4.63
MPP7, Q5T2T1; [1]
  pKd: 3.35
Inadl_9, Q8NI35; [1]
  pKd: below the threshold
ARHGEF12, Q9NZN5-2; [1]
  pKd: 4.87
MAGI2_3, Q86UL8; [1]
  pKd: below the threshold
ARHGAP21, Q5T5U3; [1]
  pKd: below the threshold
DVL3, Q92997; [1]
  pKd: below the threshold
CARD11, Q9BXL7; [1]
  pKd: below the threshold
MAGI2_2, Q86UL8; [1]
  pKd: 3.92
NHERF3_4, Q5T2W1; [1]
  pKd: 3.75
FRMPD4, Q14CM0; [1]
  pKd: 3.62
RADIL, Q96JH8; [1]
  pKd: 3.52
Inadl_6, Q8NI35; [1]
  pKd: 3.52
MPDZ_10, O75970; [1]
  pKd: below the threshold
DLG4_1, P78352; [1]
  pKd: 3.8
SCRIB_3, Q14160; [1]
  pKd: 4.61
GRIP2_5, Q9C0E4; [1]
  pKd: below the threshold
NOS1, P29475; [1]
  pKd: below the threshold

## DQPLEKSTKL [AKAP10, O43572]
FRMPD2_3, Q68DX3; [2]
  pKd: below the threshold
MAGI2_4, Q86UL8; [2]
  pKd: below the threshold
MAGI1_1, Q96QZ7; [2]
  pKd: below the threshold
PTPN3, P26045; [2]
  pKd: 4.62
DLG2_2, Q15700; [2]
  pKd: below the threshold
Inadl_10, Q8NI35; [2]
  pKd: below the threshold
PDZRN4_1, Q6ZMN7; [2]
  pKd: 3.92
MAGI3_2, Q5TCQ9; [2]
  pKd: below the threshold
LNX1_2, Q8TBB1; [2]
  pKd: below the threshold
LDB3, O75112; [2]
  pKd: below the threshold
APBA3_1, O96018; [2]
  pKd: below the threshold
GORASP1, Q9BQQ3; [2]
  pKd: below the threshold
LNX1_1, Q8TBB1; [2]
  pKd: below the threshold
MPP7, Q5T2T1; [2]
  pKd: below the threshold
Inadl_9, Q8NI35; [2]
  pKd: below the threshold
ARHGEF12, Q9NZN5-2; [2]
  pKd: 4.97
MAGI2_3, Q86UL8; [2]
  pKd: below the threshold
ARHGAP21, Q5T5U3; [2]
  pKd: below the threshold
DVL3, Q92997; [2]
  pKd: below the threshold
CARD11, Q9BXL7; [2]
  pKd: below the threshold
MAGI2_2, Q86UL8; [2]
  pKd: below the threshold
NHERF3_4, Q5T2W1; [2]
  pKd: 5.69
FRMPD4, Q14CM0; [2]
  pKd: 4.07
RADIL, Q96JH8; [2]
  pKd: below the threshold
Inadl_6, Q8NI35; [2]
  pKd: below the threshold
MPDZ_10, O75970; [2]
  pKd: below the threshold
DLG4_1, P78352; [2]
  pKd: below the threshold
SCRIB_3, Q14160; [2]
  pKd: 4.14
GRIP2_5, Q9C0E4; [2]
  pKd: below the threshold
NOS1, P29475; [2]
  pKd: below the threshold

## GQSVDLVFPV [AKIP1, Q9NQ31]
FRMPD2_3, Q68DX3; [2]
  pKd: below the threshold
MAGI2_4, Q86UL8; [2]
  pKd: below the threshold
MAGI1_1, Q96QZ7; [2]
  pKd: below the threshold
PTPN3, P26045; [2]
  pKd: below the threshold
DLG2_2, Q15700; [2]
  pKd: below the threshold
Inadl_10, Q8NI35; [2]
  pKd: below the threshold
PDZRN4_1, Q6ZMN7; [2]
  pKd: below the threshold
MAGI3_2, Q5TCQ9; [2]
  pKd: below the threshold
LNX1_2, Q8TBB1; [2]
  pKd: 3.75
LDB3, O75112; [2]
  pKd: below the threshold
APBA3_1, O96018; [2]
  pKd: below the threshold
GORASP1, Q9BQQ3; [2]
  pKd: 3.92
LNX1_1, Q8TBB1; [2]
  pKd: 3.66
MPP7, Q5T2T1; [2]
  pKd: below the threshold
Inadl_9, Q8NI35; [2]
  pKd: 3.5
ARHGEF12, Q9NZN5-2; [2]
  pKd: below the threshold
MAGI2_3, Q86UL8; [2]
  pKd: below the threshold
ARHGAP21, Q5T5U3; [2]
  pKd: 4.16
DVL3, Q92997; [2]
  pKd: below the threshold
CARD11, Q9BXL7; [2]
  pKd: 3.63
MAGI2_2, Q86UL8; [2]
  pKd: below the threshold
NHERF3_4, Q5T2W1; [2]
  pKd: below the threshold
FRMPD4, Q14CM0; [2]
  pKd: 3.93
RADIL, Q96JH8; [2]
  pKd: 3.97
Inadl_6, Q8NI35; [2]
  pKd: below the threshold
MPDZ_10, O75970; [2]
  pKd: below the threshold
DLG4_1, P78352; [2]
  pKd: 3.6
SCRIB_3, Q14160; [2]
  pKd: below the threshold
GRIP2_5, Q9C0E4; [2]
  pKd: below the threshold
NOS1, P29475; [2]
  pKd: 3.93

## LEPAVRSSEL [SH2D3C, Q8N5H7]
FRMPD2_3, Q68DX3; [2]
  pKd: below the threshold
MAGI2_4, Q86UL8; [2]
  pKd: below the threshold
MAGI1_1, Q96QZ7; [2]
  pKd: below the threshold
PTPN3, P26045; [2]
  pKd: 4.82
DLG2_2, Q15700; [2]
  pKd: below the threshold
Inadl_10, Q8NI35; [2]
  pKd: below the threshold
PDZRN4_1, Q6ZMN7; [2]
  pKd: 3.9
MAGI3_2, Q5TCQ9; [2]
  pKd: below the threshold
LNX1_2, Q8TBB1; [2]
  pKd: below the threshold
LDB3, O75112; [2]
  pKd: below the threshold
APBA3_1, O96018; [2]
  pKd: below the threshold
GORASP1, Q9BQQ3; [2]
  pKd: below the threshold
LNX1_1, Q8TBB1; [2]
  pKd: 3.67
MPP7, Q5T2T1; [2]
  pKd: below the threshold
Inadl_9, Q8NI35; [2]
  pKd: below the threshold
ARHGEF12, Q9NZN5-2; [2]
  pKd: 4.91
MAGI2_3, Q86UL8; [2]
  pKd: below the threshold
ARHGAP21, Q5T5U3; [2]
  pKd: 3.72
DVL3, Q92997; [2]
  pKd: below the threshold
CARD11, Q9BXL7; [2]
  pKd: below the threshold
MAGI2_2, Q86UL8; [2]
  pKd: below the threshold
NHERF3_4, Q5T2W1; [2]
  pKd: 4.26
FRMPD4, Q14CM0; [2]
  pKd: below the threshold
RADIL, Q96JH8; [2]
  pKd: below the threshold
Inadl_6, Q8NI35; [2]
  pKd: below the threshold
MPDZ_10, O75970; [2]
  pKd: below the threshold
DLG4_1, P78352; [2]
  pKd: below the threshold
SCRIB_3, Q14160; [2]
  pKd: 4.39
GRIP2_5, Q9C0E4; [2]
  pKd: below the threshold
NOS1, P29475; [2]
  pKd: below the threshold
